Measurements as given in PMC11480844.

B1: H2-Kb / B5 (parent)
chain 1: TQTVSQSDAHVTVFEGDSVELRCNYSYGGSIYLSWYIQHHGHGLQFLLKYYSGNPVVQGVNGFEAEFSKSDSSFHLRKASVHWSDSAVYFCAVSLYQGGRALIFGTGTTVSVSP
chain 2: EAGVTQSPRYAVLQEGQAVSFWCDPISGHDTLYWYQQPRDQGPQLLVYFRDEAVIDNSQLPSDRFSAVRPKGTNSTLKIQSAKQGDTATYLCASSFAGGARAEQFFGPGTRLTVL
chain 3: not shown
chain 4: IQKTPQIQVYSRHPPENGKPNILNCYVTQFHPPHIEIQMLKNGKKIPKVEMSDMSFSKDWSFYILAHTEFTPTETDTYACRVKHDSMAEPKTVYWDRDM
chain 5: SIINFEKL
B2: H2-Kb / F5 (parent)
chain 1: GDSVTQTEGLVTLTEGLPVMLNCTYQSTYSPFLFWYVQHLNEAPKLLLKSFTDNKRPEHQGFHATLHKSSSSFHLQKSSAQLSDSALYYCALSPSNMGYKLTFGTGTSLLVDP
chain 2: EAAVTQSPRNKVAVTGGKVTLSCNQTNNHNNMYWYRQDTGHGLRLIHYSYGAGSTEKGDIPDGYKASRPSQENFSLILELATPSQTSVYFCASGDASEQYFGPGTRLTVL
chain 3: not shown
chain 4: B1 chain 4
chain 5: SIINFEKL
B3: H2-Kb / B6 (parent)
chain 1: GDSVTQTEGLVTVTEGLPVKLNCTYQTTYLTIAFFWYVQYLNEAPQVLLKSSTDNKRTEHQGFHATLHKSSSSFHLQKSSAQLSDSALYYCALSLGNAGAKLTFGGGTRLTVRP
chain 2: EAAVTQSPRNKVTVTGGNVTLSCRQTNSHNYMYWYRQDTGHGLRLIHYSYGAGNLQIGDVPDGYKATRTTQEDFFLLLELASPSQTSLYFCASSDGMISSSYEQYFGPGTRLTVL
chain 3: not shown
chain 4: B1 chain 4
chain 5: SIINFEKL

Variants of: B1
Experiment: % of reporter cells activated (NFAT-GFP), raw
Details: with B5; scale: % of reporter cells activated
Note: test concentration or dose not given here.

Ratio to parent, by site and new letter:
chain 5 I2: G 1.13, H 0.792, K 0.889, L 1.17, M 1.58, N 1.36, P 1.12, Q 1.11, R 0.819, S 0.694, T 0.542, V 0.375, W 1.51, Y 1.01
chain 5 I3: A 1.01, C 0.792, D 1, E 1.17, F 0.958, G 0.917, H 1.01, K 1.11, L 0.847, M 0.972, N 0.917, P 1.08, Q 0.792, R 1.03, S 1.54, T 0.764, V 1.1, W 7.01, Y 0.917
chain 5 K7: A 1.19, C 1.14, D 1.11, E 1.31, F 0.806, G 0.917, H 1.29, I 1.4, L 1.28, M 1.57, N 1.21, P 0.889, Q 1.01, R 0.833, S 0.944, T 1.17, V 1.19, W 1.19, Y 1.38
chain 5 L8: A 1.54, C 1.4, D 1.33, E 1.42, F 1.53, G 0.972, H 1.21, I 1.06, K 0.903, M 1.61, N 1.49, P 1.15, Q 1.86, R 1.78, S 1.19, T 1.04, V 1.35, W 1.47, Y 0.958
chain 5 N4: A 0.931, C 0.625, D 1.08, E 0.778, F 8.53, G 1.33, H 0.556, I 0.5, K 1.07, L 1.08, M 0.75, P 0.917, Q 1.71, R 0.556, S 0.597, T 0.514, V 0.389, W 0.931, Y 1
chain 5 S1: A 1.43, C 0.875, D 1.54, E 0.889, F 1.22, G 0.889, H 1.11, I 1.14, K 0.764, L 0.764, M 1.22, N 1.24, P 0.917, Q 1.08, R 1.14, T 0.986, V 1.39, W 1.65, Y 0.75

Variants of: B2
Experiment: % of reporter cells activated (NFAT-GFP), raw
Details: with F5; scale: % of reporter cells activated

Ratio to parent of substitutions, site by site:
chain 5 E6: A 0.318, C 0.303, D 0.371, F 0.292, G 0.281, H 0.27, I 0.21, K 0.337, L 0.341, M 0.221, N 0.296, P 0.21, Q 0.288, R 0.453, S 0.303, T 0.36, V 0.232, W 0.318, Y 0.296
chain 5 F5: A 0.921, C 1.48, D 0.273, E 0.315, G 0.296, H 0.659, I 0.607, K 0.247, L 0.79, M 1.51, N 0.655, P 4.99, Q 1.76, R 0.318, S 1.09, T 1.2, V 1.15, W 1.55, Y 0.502
chain 5 I2: A 0.603, C 0.779, D 0.652, E 0.558, F 0.577, G 0.989, H 0.378, K 0.397, L 3.22, M 1.58, N 0.903, P 0.419, Q 0.472, R 0.273, S 0.483, T 1.03, V 1.23, W 1.57, Y 0.393
chain 5 I3: A 0.386, C 0.419, D 0.255, E 0.517, F 0.3, G 0.292, H 0.311, K 0.345, L 0.547, M 0.255, N 0.251, P 0.427, Q 0.464, R 0.161, S 0.348, T 0.356, V 0.487, W 0.243, Y 0.3
chain 5 K7: A 0.903, C 0.588, D 0.341, E 0.184, F 2.64, G 0.318, H 0.61, I 2.55, L 3.69, M 5.55, N 0.386, P 0.322, Q 1.38, R 2.89, S 0.775, T 1.72, V 2.14, W 0.498, Y 0.423
chain 5 L8: A 0.195, C 2.82, D 1.91, E 0.285, F 0.247, G 0.352, H 1.55, I 0.858, K 0.633, M 0.427, N 0.21, P 0.352, Q 0.288, R 0.345, S 1.39, T 0.453, V 0.521, W 0.292, Y 0.742
chain 5 N4: A 0.262, C 0.232, D 0.21, E 0.21, F 0.509, G 0.24, H 0.36, I 0.315, K 0.184, L 0.401, M 0.431, P 0.36, Q 0.15, R 0.191, S 0.303, T 0.337, V 0.322, W 0.438, Y 0.307
chain 5 S1: A 0.521, C 0.296, D 0.288, E 0.33, F 0.262, G 0.629, H 0.337, I 0.262, K 0.326, L 0.375, M 0.281, N 0.161, P 0.315, Q 0.554, R 0.225, T 0.573, V 0.307, W 0.292, Y 0.337

Variants of: B3
Experiment: % of reporter cells activated (NFAT-GFP), raw
Set-up: unit not given here
Details: with B6

Ratio to parent of substitutions, site by site:
chain 5 E6: A 1.21, C 0.879, D 0.792, F 0.792, G 0.664, H 0.919, I 0.55, K 0.872, L 0.866, M 0.946, N 1.07, P 1, Q 0.872, R 0.711, S 0.852, T 0.859, V 0.51, W 0.758, Y 0.685
chain 5 F5: A 1.15, C 1.47, D 1.25, E 1.74, G 1.17, H 1.28, I 1.09, K 1.28, L 1.08, M 1, N 0.966, P 0.973, Q 1.07, R 0.765, S 0.98, T 0.993, V 1.09, W 1.15, Y 1.28
chain 5 I2: A 1.13, C 1.18, D 1.07, E 0.879, F 1.01, G 0.966, H 1.15, K 1.08, L 1.08, M 0.98, N 1.2, P 1.16, Q 0.886, R 0.765, S 0.987, T 1.23, V 0.987, W 0.926, Y 1.07
chain 5 I3: A 1.17, C 1.07, D 1.01, E 1.03, F 1.43, G 1.01, H 1.01, K 0.98, L 1.11, M 1.13, N 0.913, P 1.11, Q 1.06, R 0.678, S 1.15, T 1.16
